Laboratory results from US20260242419A1, “A CYCLIC PEPTIDE FOR TRAPPING INTERLEUKIN-1 BETA” (Merck Sharp & Dohme LLC, priority 2023, published 2026).
Starred links: 1 amine or outer side, 2 acyl side, 3 side chain; linkers in the order of their positions; H or OH if unused. Non-standard residues stand in square brackets, D forms with d. SbOHPhe4CONH2 = (2S,3S)-2-amino-3-(4-carbamoylphenyl)-3-hydroxypropanoic acid, NC(=O)c1ccc([C@H](O[*:3])[C@H](N[*:1])C(=O)[*:2])cc1; TyrEtNAc = (2S)-3-[4-(2-acetamidoethoxy)phenyl]-2-amino-propanoic acid, CC(=O)NCCOc1ccc(C[C@H](N[*:1])C(=O)[*:2])cc1; alThrOEt = O-ethyl-L-allothreonine, CCO[C@@H](C)[C@H](N[*:1])C(=O)[*:2]; ThrOEt = O-ethyl-L-threonine, CCO[C@H](C)[C@H](N[*:1])C(=O)[*:2]; dPro(4R-(4-pyridylmethyl)) = O=C(O)[C@H]1C[C@@H](Cc2ccncc2)CN1; Trp(βS-Me,4-F) = C[C@@H](c1c[nH]c2cccc(F)c12)[C@H](N)C(=O)O; Bip(4'-CONH2) = NC(=O)c1ccc(-c2ccc(C[C@H](N)C(=O)O)cc2)cc1; Ala(1-bicyclo(1.1.1)pentyl) = N[C@@H](CC12CC(C1)C2)C(=O)O; dPro(3S-(4-F-Bn)) = O=C(O)[C@@H]1NCC[C@@H]1Cc1ccc(F)cc1; Ala(pyrimidin-5-yl) = N[C@@H](Cc1cncnc1)C(=O)O; Phe(4-CONH2) = NC(=O)c1ccc(C[C@H](N)C(=O)O)cc1; Phe(4-COOH) = N[C@@H](Cc1ccc(C(=O)O)cc1)C(=O)O; Pro(cis-4-F) = O=C(O)[C@@H]1C[C@H](F)CN1; Ala(4-THP) = N[C@@H](CC1CCOCC1)C(=O)O; d(αMeD) = C[C@@](N)(CC(=O)O)C(=O)O; 4Pal = N[C@@H](Cc1ccncc1)C(=O)O; d(αMeS) = C[C@@](N)(CO)C(=O)O; NMeDab = CN[C@@H](CCN)C(=O)O; Dab = NCC[C@H](N)C(=O)O; Aib = CC(C)(N)C(=O)O

target: Recombinant human IL-1β (BioLegend 579404) (human, UniProt P01584 117-269); assay: cell-based or functional assay

Row | MRC5 IC50 [nM] | Binder
1 | 0.017 | cyclo([TyrEtNAc][Ala(1-bicyclo(1.1.1)pentyl)][Phe(4-COOH)]G[Pro(cis-4-F)][Trp(βS-Me,4-F)][Aib]SW[d(αMeD)][Ala(4-THP)]Q[Dab]G[dPro(4R-(4-pyridylmethyl))]) (SMILES CC(=O)NCCOc1ccc(C[C@@H]2NC(=O)[C@H]3C[C@@H](Cc4ccncc4)CN3C(=O)CNC(=O)[C@H](CCN)NC(=O)[C@H](CCC(N)=O)NC(=O)[C@H](CC3CCOCC3)NC(=O)[C@@](C)(CC(=O)O)NC(=O)[C@H](Cc3c[nH]c4ccccc34)NC(=O)[C@H](CO)NC(=O)C(C)(C)NC(=O)[C@H]([C@@H](C)c3c[nH]c4cccc(F)c34)NC(=O)[C@@H]3C[C@H](F)CN3C(=O)CNC(=O)[C@H](Cc3ccc(C(=O)O)cc3)NC(=O)[C@H](CC34CC(C3)C4)NC2=O)cc1) [SEQ ID NO 374]
2 | 0.018 | cyclo([Bip(4'-CONH2)][4Pal][Phe(4-CONH2)]G[Pro(cis-4-F)][Trp(βS-Me,4-F)][Aib]SW[d(αMeD)][Ala(pyrimidin-5-yl)]Q[Dab]G[dPro(3S-(4-F-Bn))]) (SMILES C[C@@H](c1c[nH]c2cccc(F)c12)[C@@H]1NC(=O)[C@@H]2C[C@H](F)CN2C(=O)CNC(=O)[C@H](Cc2ccc(C(N)=O)cc2)NC(=O)[C@H](Cc2ccncc2)NC(=O)[C@H](Cc2ccc(-c3ccc(C(N)=O)cc3)cc2)NC(=O)[C@H]2[C@@H](Cc3ccc(F)cc3)CCN2C(=O)CNC(=O)[C@H](CCN)NC(=O)[C@H](CCC(N)=O)NC(=O)[C@H](Cc2cncnc2)NC(=O)[C@@](C)(CC(=O)O)NC(=O)[C@H](Cc2c[nH]c3ccccc23)NC(=O)[C@H](CO)NC(=O)C(C)(C)NC1=O) [SEQ ID NO 380]
3 | 0.041 | cyclo([TyrEtNAc][4Pal][Phe(4-CONH2)]G[Pro(cis-4-F)][Trp(βS-Me,4-F)][Aib]SW[Aib][alThrOEt]Q[NMeDab]G[dPro(4R-(4-pyridylmethyl))]) (SMILES CCO[C@@H](C)[C@@H]1NC(=O)C(C)(C)NC(=O)[C@H](Cc2c[nH]c3ccccc23)NC(=O)[C@H](CO)NC(=O)C(C)(C)NC(=O)[C@H]([C@@H](C)c2c[nH]c3cccc(F)c23)NC(=O)[C@@H]2C[C@H](F)CN2C(=O)CNC(=O)[C@H](Cc2ccc(C(N)=O)cc2)NC(=O)[C@H](Cc2ccncc2)NC(=O)[C@H](Cc2ccc(OCCNC(C)=O)cc2)NC(=O)[C@H]2C[C@@H](Cc3ccncc3)CN2C(=O)CNC(=O)[C@H](CCN)N(C)C(=O)[C@H](CCC(N)=O)NC1=O) [SEQ ID NO 381]
4 | 0.04 | cyclo([TyrEtNAc][4Pal][Phe(4-CONH2)]G[Pro(cis-4-F)][Trp(βS-Me,4-F)][Aib]SW[d(αMeD)][Ala(4-THP)]Q[Dab]G[dPro(4R-(4-pyridylmethyl))]) (SMILES CC(=O)NCCOc1ccc(C[C@@H]2NC(=O)[C@H]3C[C@@H](Cc4ccncc4)CN3C(=O)CNC(=O)[C@H](CCN)NC(=O)[C@H](CCC(N)=O)NC(=O)[C@H](CC3CCOCC3)NC(=O)[C@@](C)(CC(=O)O)NC(=O)[C@H](Cc3c[nH]c4ccccc34)NC(=O)[C@H](CO)NC(=O)C(C)(C)NC(=O)[C@H]([C@@H](C)c3c[nH]c4cccc(F)c34)NC(=O)[C@@H]3C[C@H](F)CN3C(=O)CNC(=O)[C@H](Cc3ccc(C(N)=O)cc3)NC(=O)[C@H](Cc3ccncc3)NC2=O)cc1) [SEQ ID NO 377]

Further lines, the binder ahead of its results:

Row | Binder | MRC5 IC50 [nM]
5 | cyclo([TyrEtNAc][4Pal][SbOHPhe4CONH2]G[Pro(cis-4-F)][Trp(βS-Me,4-F)][Aib]SW[Aib][Ala(pyrimidin-5-yl)]Q[NMeDab]G[dPro(4R-(4-pyridylmethyl))]) (SMILES CC(=O)NCCOc1ccc(C[C@@H]2NC(=O)[C@H]3C[C@@H](Cc4ccncc4)CN3C(=O)CNC(=O)[C@H](CCN)N(C)C(=O)[C@H](CCC(N)=O)NC(=O)[C@H](Cc3cncnc3)NC(=O)C(C)(C)NC(=O)[C@H](Cc3c[nH]c4ccccc34)NC(=O)[C@H](CO)NC(=O)C(C)(C)NC(=O)[C@H]([C@@H](C)c3c[nH]c4cccc(F)c34)NC(=O)[C@@H]3C[C@H](F)CN3C(=O)CNC(=O)[C@H]([C@@H](O)c3ccc(C(N)=O)cc3)NC(=O)[C@H](Cc3ccncc3)NC2=O)cc1) [SEQ ID NO 383] | 0.042
6 | cyclo([Bip(4'-CONH2)][4Pal][Phe(4-COOH)]G[Pro(cis-4-F)][Trp(βS-Me,4-F)][Aib]SW[d(αMeD)][Ala(pyrimidin-5-yl)]Q[Dab]G[dPro(3S-(4-F-Bn))]) (SMILES C[C@@H](c1c[nH]c2cccc(F)c12)[C@@H]1NC(=O)[C@@H]2C[C@H](F)CN2C(=O)CNC(=O)[C@H](Cc2ccc(C(=O)O)cc2)NC(=O)[C@H](Cc2ccncc2)NC(=O)[C@H](Cc2ccc(-c3ccc(C(N)=O)cc3)cc2)NC(=O)[C@H]2[C@@H](Cc3ccc(F)cc3)CCN2C(=O)CNC(=O)[C@H](CCN)NC(=O)[C@H](CCC(N)=O)NC(=O)[C@H](Cc2cncnc2)NC(=O)[C@@](C)(CC(=O)O)NC(=O)[C@H](Cc2c[nH]c3ccccc23)NC(=O)[C@H](CO)NC(=O)C(C)(C)NC1=O) [SEQ ID NO 379] | 0.016
7 | cyclo([TyrEtNAc][Ala(1-bicyclo(1.1.1)pentyl)][Phe(4-COOH)]G[Pro(cis-4-F)][Trp(βS-Me,4-F)][Aib]SW[d(αMeS)][Ala(4-THP)]Q[Dab]G[dPro(4R-(4-pyridylmethyl))]) (SMILES CC(=O)NCCOc1ccc(C[C@@H]2NC(=O)[C@H]3C[C@@H](Cc4ccncc4)CN3C(=O)CNC(=O)[C@H](CCN)NC(=O)[C@H](CCC(N)=O)NC(=O)[C@H](CC3CCOCC3)NC(=O)[C@@](C)(CO)NC(=O)[C@H](Cc3c[nH]c4ccccc34)NC(=O)[C@H](CO)NC(=O)C(C)(C)NC(=O)[C@H]([C@@H](C)c3c[nH]c4cccc(F)c34)NC(=O)[C@@H]3C[C@H](F)CN3C(=O)CNC(=O)[C@H](Cc3ccc(C(=O)O)cc3)NC(=O)[C@H](CC34CC(C3)C4)NC2=O)cc1) [SEQ ID NO 375] | 0.025
8 | cyclo([TyrEtNAc][4Pal][Phe(4-CONH2)]G[Pro(cis-4-F)][Trp(βS-Me,4-F)][Aib]SW[d(αMeS)][Ala(4-THP)]Q[Dab]G[dPro(4R-(4-pyridylmethyl))]) (SMILES CC(=O)NCCOc1ccc(C[C@@H]2NC(=O)[C@H]3C[C@@H](Cc4ccncc4)CN3C(=O)CNC(=O)[C@H](CCN)NC(=O)[C@H](CCC(N)=O)NC(=O)[C@H](CC3CCOCC3)NC(=O)[C@@](C)(CO)NC(=O)[C@H](Cc3c[nH]c4ccccc34)NC(=O)[C@H](CO)NC(=O)C(C)(C)NC(=O)[C@H]([C@@H](C)c3c[nH]c4cccc(F)c34)NC(=O)[C@@H]3C[C@H](F)CN3C(=O)CNC(=O)[C@H](Cc3ccc(C(N)=O)cc3)NC(=O)[C@H](Cc3ccncc3)NC2=O)cc1) [SEQ ID NO 378] | 0.043
9 | cyclo([TyrEtNAc][4Pal][Phe(4-CONH2)]G[Pro(cis-4-F)][Trp(βS-Me,4-F)][Aib]SW[Aib][Ala(pyrimidin-5-yl)]Q[Dab]G[dPro(4R-(4-pyridylmethyl))]) [SEQ ID NO 384] | 0.086
10 | cyclo([TyrEtNAc][Ala(1-bicyclo(1.1.1)pentyl)][Phe(4-CONH2)]G[Pro(cis-4-F)][Trp(βS-Me,4-F)][Aib]SW[d(αMeD)][Ala(4-THP)]Q[Dab]G[dPro(4R-(4-pyridylmethyl))]) (SMILES CC(=O)NCCOc1ccc(C[C@@H]2NC(=O)[C@H]3C[C@@H](Cc4ccncc4)CN3C(=O)CNC(=O)[C@H](CCN)NC(=O)[C@H](CCC(N)=O)NC(=O)[C@H](CC3CCOCC3)NC(=O)[C@@](C)(CC(=O)O)NC(=O)[C@H](Cc3c[nH]c4ccccc34)NC(=O)[C@H](CO)NC(=O)C(C)(C)NC(=O)[C@H]([C@@H](C)c3c[nH]c4cccc(F)c34)NC(=O)[C@@H]3C[C@H](F)CN3C(=O)CNC(=O)[C@H](Cc3ccc(C(N)=O)cc3)NC(=O)[C@H](CC34CC(C3)C4)NC2=O)cc1) [SEQ ID NO 376] | 0.048
11 | cyclo([TyrEtNAc][4Pal][Phe(4-CONH2)]G[Pro(cis-4-F)][Trp(βS-Me,4-F)][Aib]SW[Aib][ThrOEt]Q[NMeDab]G[dPro(4R-(4-pyridylmethyl))]) (SMILES CCO[C@H](C)[C@@H]1NC(=O)C(C)(C)NC(=O)[C@H](Cc2c[nH]c3ccccc23)NC(=O)[C@H](CO)NC(=O)C(C)(C)NC(=O)[C@H]([C@@H](C)c2c[nH]c3cccc(F)c23)NC(=O)[C@@H]2C[C@H](F)CN2C(=O)CNC(=O)[C@H](Cc2ccc(C(N)=O)cc2)NC(=O)[C@H](Cc2ccncc2)NC(=O)[C@H](Cc2ccc(OCCNC(C)=O)cc2)NC(=O)[C@H]2C[C@@H](Cc3ccncc3)CN2C(=O)CNC(=O)[C@H](CCN)N(C)C(=O)[C@H](CCC(N)=O)NC1=O) [SEQ ID NO 382] | 0.048
